# Experimental data reported in doi:10.1101/2025.11.17.688911.
# How the values were obtained:
# [1] = target: surface-immobilized biotinylated microtubules, Q2XVP4;Q767L7; assay: fluorescence intensity of GFP-tagged MAP9 on MTs (fluorescence microscopy); conditions: 100 mM salt (stated for panel d); parent: est. 2.8; read off a plot
# [2] = target: surface-immobilized biotinylated microtubules, Q2XVP4;Q767L7; assay: fluorescence intensity of GFP-tagged MAP9-MTBD on surface-immobilized MTs (fluorescence microscopy); conditions: 100 nM MAP9 construct (stated for panel h and Extended Data Fig. 6b); parent: est. 0.72; read off a plot
Substance,response [1] [a.u.],response [2] [a.u.]
MAP9-MTBD (Human MAP9 (302–647)::GFP::strepII) (from UniProt Q49MG5) LHEMHRIK>LAEMHAIK; …>…; LKEKNRK>LAEKNAK; FKQKEKEK>FAQKEAEK; ERIERKQ>EAIERAQ,2.8,
MAP9-MTBD (Human MAP9 (302–647)::GFP::strepII) (from UniProt Q49MG5) Y429A; W432A; K436A; F473A; W476A; K480A,,0.05
